Experimental data published in IntAct's records for PubMed 29892012.

B1: Kinetochore protein NDC80 homolog (Homo sapiens), O14777 (parent)
chain: MKRSSVSSGGAGRLSMQELRSQDVNKQGLYTPQTKEKPTFGKLSINKPTSERKVSLFGKRTSGHGSRNSQLGIFSSSEKIKDPRPLNDKAFIQQCIRQLCEFLTENGYAHNVSMKSLQAPSVKDFLKIFTFLYGFLCPSYELPDTKFEEEVPRIFKDLGYPFALSKSSMYTVGAPHTWPHIVAALVWLIDCIKIHTAMKESSPLFDDGQPWGEETEDGIMHNKLFLDYTIKCYESFMSGADSFDEMNAELQSKLKDLFNVDAFKLESLEAKNRALNEQIARLEQEREKEPNRLESLRKLKASLQGDVQKYQAYMSNLESHSAILDQKLNGLNEEIARVELECETIKQENTRLQNIIDNQKYSVADIERINHERNELQQTINKLTKDLEAEQQKLWNEELKYARGKEAIETQLAEYHKLARKLKLIPKGAENSKGYDFEIKFNPEAGANCLVKYRAQVYVPLKELLNETEEEINKALNKKMGLEDTLEQLNAMITESKRSVRTLKEEVQKLDDLYQQKIKEAEEEDEKCASELESLEKHKHLLESTVNQGLSEAMNELDAVQREYQLVVQTTTEERRKVGNNLQRLLEMVATHVGSVEKHLEEQIAKVDREYEECMSEDLSENIKEIRDKYEKKATLIKSSEE
partner: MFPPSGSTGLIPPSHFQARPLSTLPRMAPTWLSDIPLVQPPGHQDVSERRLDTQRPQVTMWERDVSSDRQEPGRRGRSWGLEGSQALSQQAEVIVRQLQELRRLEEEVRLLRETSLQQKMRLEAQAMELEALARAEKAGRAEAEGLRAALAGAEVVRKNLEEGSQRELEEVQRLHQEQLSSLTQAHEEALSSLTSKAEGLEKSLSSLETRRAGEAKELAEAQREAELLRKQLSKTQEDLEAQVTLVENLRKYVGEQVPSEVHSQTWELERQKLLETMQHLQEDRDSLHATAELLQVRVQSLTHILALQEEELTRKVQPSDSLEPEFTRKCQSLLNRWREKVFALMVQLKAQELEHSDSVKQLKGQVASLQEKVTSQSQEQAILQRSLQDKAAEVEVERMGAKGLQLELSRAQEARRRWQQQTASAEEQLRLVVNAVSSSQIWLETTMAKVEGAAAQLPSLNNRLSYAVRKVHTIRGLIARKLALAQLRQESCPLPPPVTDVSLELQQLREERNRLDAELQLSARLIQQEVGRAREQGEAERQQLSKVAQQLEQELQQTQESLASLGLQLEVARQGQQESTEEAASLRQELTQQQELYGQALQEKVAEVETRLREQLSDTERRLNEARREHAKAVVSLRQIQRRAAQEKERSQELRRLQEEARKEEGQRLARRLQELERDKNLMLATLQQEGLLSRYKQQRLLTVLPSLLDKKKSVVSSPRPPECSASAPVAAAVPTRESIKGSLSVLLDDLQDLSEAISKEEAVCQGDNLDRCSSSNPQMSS
B2: Ribosome assembly protein METTL17, mitochondrial (Homo sapiens), Q9H7H0 (parent)
chain: MAAALKCLLTLGRWCPGLGVAPQARALAALVPGVTQVDNKSGFLQKRPHRQHPGILKLPHVRLPQALANGAQLLLLGSAGPTMENQVQTLTSYLWSRHLPVEPEELQRRARHLEKKFLENPDLSQTEEKLRGAVLHALRKTTYHWQELSYTEGLSLVYMAARLDGGFAAVSRAFHEIRARNPAFQPQTLMDFGSGTGSVTWAAHSIWGQSLREYMCVDRSAAMLVLAEKLLKGGSESGEPYIPGVFFRQFLPVSPKVQFDVVVSAFSLSELPSKADRTEVVQTLWRKTGHFLVLVENGTKAGHSLLMDARDLVLKGKEKSPLDPRPGFVFAPCPHELPCPQLTNLACSFSQAYHPIPFSWNKKPKEEKFSMVILARGSPEEAHRWPRITQPVLKRPRHVHCHLCCPDGHMQHAVLTARRHGRDLYRCARVSSWGDLLPVLTPSAFPPSTAQDPSES
partner: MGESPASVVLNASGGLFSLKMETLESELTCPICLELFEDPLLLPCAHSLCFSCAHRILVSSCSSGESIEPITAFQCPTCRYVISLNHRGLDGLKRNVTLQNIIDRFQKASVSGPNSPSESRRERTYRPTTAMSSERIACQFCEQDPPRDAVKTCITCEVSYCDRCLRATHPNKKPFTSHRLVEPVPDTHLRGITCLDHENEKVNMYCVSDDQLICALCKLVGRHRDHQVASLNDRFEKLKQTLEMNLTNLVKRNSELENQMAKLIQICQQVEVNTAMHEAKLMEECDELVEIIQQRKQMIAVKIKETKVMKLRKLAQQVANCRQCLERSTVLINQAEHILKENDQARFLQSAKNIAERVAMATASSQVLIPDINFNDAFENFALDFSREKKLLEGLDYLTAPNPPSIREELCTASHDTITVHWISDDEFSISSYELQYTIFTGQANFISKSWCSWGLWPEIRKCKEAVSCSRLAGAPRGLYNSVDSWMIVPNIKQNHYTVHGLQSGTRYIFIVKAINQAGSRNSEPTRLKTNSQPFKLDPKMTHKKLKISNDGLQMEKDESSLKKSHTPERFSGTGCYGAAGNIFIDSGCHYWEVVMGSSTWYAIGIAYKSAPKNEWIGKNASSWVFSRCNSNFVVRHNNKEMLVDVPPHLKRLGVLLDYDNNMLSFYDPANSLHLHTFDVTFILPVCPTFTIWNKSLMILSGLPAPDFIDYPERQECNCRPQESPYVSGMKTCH
B3: Structure-specific endonuclease subunit SLX4 (Homo sapiens), Q8IY92 (parent)
chain: MKLSVNEAQLGFYLGSLSHLSACPGIDPRSSEDQPESLKTGQMMDESDEDFKELCASFFQRVKKHGIKEVSGERKTQKAASNGTQIRSKLKRTKQTATKTKTLQGPAEKKPPSGSQAPRTKKQRVTKWQASEPAHSVNGEGGVLASAPDPPVLRETAQNTQTGNQQEPSPNLSREKTRENVPNSDSQPPPSCLTTAVPSPSKPRTAQLVLQRMQQFKRADPERLRHASEECSLEAAREENVPKDPQEEMMAGNVYGLGPPAPESDAAVALTLQQEFARVGASAHDDSLEEKGLFFCQICQKNLSAMNVTRREQHVNRCLDEAEKTLRPSVPQIPECPICGKPFLTLKSRTSHLKQCAVKMEVGPQLLLQAVRLQTAQPEGSSSPPMFSFSDHSRGLKRRGPTSKKEPRKRRKVDEAPSEDLLVAMALSRSEMEPGAAVPALRLESAFSERIRPEAENKSRKKKPPVSPPLLLVQDSETTGRQIEDRVALLLSEEVELSSTPPLPASRILKEGWERAGQCPPPPERKQSFLWEGSALTGAWAMEDFYTARLVPPLVPQRPAQGLMQEPVPPLVPPEHSELSERRSPALHGTPTAGCGSRGPSPSASQREHQALQDLVDLAREGLSASPWPGSGGLAGSEGTAGLDVVPGGLPLTGFVVPSQDKHPDRGGRTLLSLGLLVADFGAMVNNPHLSDVQFQTDSGEVLYAHKFVLYARCPLLIQYVNNEGFSAVEDGVLTQRVLLGDVSTEAARTFLHYLYTADTGLPPGLSSELSSLAHRFGVSELVHLCEQVPIATDSEGKPWEEKEAENCESRAENFQELLRSMWADEEEEAETLLKSKDHEEDQENVNEAEMEEIYEFAATQRKLLQEERAAGAGEDADWLEGGSPVSGQLLAGVQVQKQWDKVEEMEPLEPGRDEAATTWEKMGQCALPPPQGQHSGARGAEAPEQEAPEEALGHSSCSSPSRDCQAERKEGSLPHSDDAGDYEQLFSSTQGEISEPSQITSEPEEQSGAVRERGLEVSHRLAPWQASPPHPCRFLLGPPQGGSPRGSHHTSGSSLSTPRSRGGTSQVGSPTLLSPAVPSKQKRDRSILTLSKEPGHQKGKERRSVLECRNKGVLMFPEKSPSIDLTQSNPDHSSSRSQKSSSKLNEEDEVILLLDSDEELELEQTKMKSISSDPLEEKKALEISPRSCELFSIIDVDADQEPSQSPPRSEAVLQQEDEGALPENRGSLGRRGAPWLFCDRESSPSEASTTDTSWLVPATPLASRSRDCSSQTQISSLRSGLAVQAVTQHTPRASVGNREGNEVAQKFSVIRPQTPPPQTPSSCLTPVSPGTSDGRRQGHRSPSRPHPGGHPHSSPLAPHPISGDRAHFSRRFLKHSPPGPSFLNQTPAGEVVEVGDSDDEQEVASHQANRSPPLDSDPPIPIDDCCWHMEPLSPIPIDHWNLERTGPLSTSSPSRRMNEAADSRDCRSPGLLDTTPIRGSCTTQRKLQEKSSGAGSLGNSRPSFLNSALWDVWDGEEQRPPETPPPAQMPSAGGAQKPEGLETPKGANRKKNLPPKVPITPMPQYSIMETPVLKKELDRFGVRPLPKRQMVLKLKEIFQYTHQTLDSDSEDESQSSQPLLQAPHCQTLASQTYKPSRAGVHAQQEATTGPGAHRPKGPAKTKGPRHQRKHHESITPPSRSPTKEAPPGLNDDAQIPASQESVATSVDGSDSSLSSQSSSSCEFGAAFESAGEEEGEGEVSASQAAVQAADTDEALRCYIRSKPALYQKVLLYQPFELRELQAELRQNGLRVSSRRLLDFLDTHCITFTTAATRREKLQGRRRQPRGKKKVERN
partner: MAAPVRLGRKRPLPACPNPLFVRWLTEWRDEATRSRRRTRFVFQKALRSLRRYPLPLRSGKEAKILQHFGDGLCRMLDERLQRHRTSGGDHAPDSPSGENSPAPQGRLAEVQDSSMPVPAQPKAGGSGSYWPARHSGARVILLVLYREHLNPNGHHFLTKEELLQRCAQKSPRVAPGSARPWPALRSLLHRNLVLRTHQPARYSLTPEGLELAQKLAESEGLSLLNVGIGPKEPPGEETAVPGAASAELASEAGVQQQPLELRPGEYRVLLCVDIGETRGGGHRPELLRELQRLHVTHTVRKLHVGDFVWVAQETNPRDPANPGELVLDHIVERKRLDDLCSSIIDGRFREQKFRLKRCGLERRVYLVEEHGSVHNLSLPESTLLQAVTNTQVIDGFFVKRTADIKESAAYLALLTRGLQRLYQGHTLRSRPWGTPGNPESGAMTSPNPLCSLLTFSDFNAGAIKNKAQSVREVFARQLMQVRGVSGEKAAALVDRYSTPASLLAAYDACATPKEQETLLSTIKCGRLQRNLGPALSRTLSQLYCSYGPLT

Variants of: B1
Settings: with cchcr_human CCHCR1, Q8TD31

Variant | effect of a mutation on the interaction
K288E | with no effect

Variants of: B2
Settings: with trim1_human MID2, Q9UJV3

Variant | effect of a mutation on the interaction
R212H | disrupting interaction strength

Variants of: B3
Settings: with mus81_human MUS81, Q96NY9

Variant | effect of a mutation on the interaction
F708L | disrupting interaction strength
